Assay results published in PMC2965676, “The C-Terminal Domain of the MutL Homolog from Neisseria gonorrhoeae Forms an Inverted Homodimer” (PLoS ONE, 2010).

Target: the molecule itself
Assay: SEC; Superose 6 HR 10/30; 10 mM Hepes pH 8.0, 300 mM KCl, 10% glycerol, 1 mM 2-mercaptoethanol; 0.4 ml/min; calibrated with molecular-mass markers

B1: C-terminal domain of the MutL homolog of Neisseria gonorrhoeae (NgoL-CTD), wild type (domain or fragment, UniProt Q5F8M6 458-658, looked up)
chain: IPSQSELPPLGFAIAQLLGIYILAQAEDSLLLIDMHAAAERVNYEKMKRQRQENGNLQSQHLLIPVTFAASHEECAALADHAETLAGFGLELSDMGGNTLAVRAAPVMLGKSDVVSLARDVLGELAQVGSSQTIASHENRILATMSCHGSIRAGRRLTLPEMNALLRDMENTPRSNQCNHGRPTWVKLTLKELDTLFLRGQ
notes: MutL homolog (NgoL) of Neisseria gonorrhoeae, C-terminal domain, residues 458-658; In the model, residues 463-654 (monomer A) and 464-656 (monomer B) are built; 587-591 are disordered; also called C-terminal domain of NgoL; source: selenomethionine-labelled form in E. coli B834
Question: With B1 as the protein, how does the “stoichiometry N” value read?
Answer: Its value is 2.
